This series deals with the molecule itself. Put plainly: SAXS; samples in solution at ~12 mg/mL, beamline BM29 (ESRF), ATSAS analysis, ab initio shapes.

B1: Native Plasmodium falciparum GMP synthetase (PfGMPSwt) (enzyme, UniProt Q8IJR9 1-555, looked up)
chain: MEGEEYDKILVLNFGSQYFHLIVKRLNNIKIFSETKDYGVELKDIKDMNIKGVILSGGPYSVTEAGSPHLKKEVFEYFLEKKIPIFGICYGMQEIAVQMNGEVKKSKTSEYGCTDVNILRNDNINNITYCRNFGDSSSAMDLYSNYKLMNETCCLFENIKSDITTVWMNHNDEVTKIPENFYLVSSSENCLICSIYNKEYNIYGVQYHPEVYESLDGELMFYNFAYNICKCKKQFDPIRYHELELKNIEKYKHDHYVIAAMSGGIDSTVAAAYTHKIFKERFFGIFIDNGLLRKNEAENVYTFLKSTFPDMNITKIDASENFLSNLQGVTDPEQKRKIIGKLFIEEFEKAVNNIDIDINKTFLLQGTLYPDIIESKCSKNLSDTIKTHHNVGGLPKNLKFKLFEPFKYLFKDDVKTLSRELNLPEEITNRHPFPGPGLAIRVIGEINKHKLNILREVDDIFINDLKQYGLYNQISQAFAVLLSSKSVGVRGDARSYDYVCVLRAVKTSSFMTANWYQIPYDILDKITTRILSEVKGVNRILYDVSSKPPATIEFE
notes: GMP synthetase of Plasmodium falciparum, native gene PF10_0123 (PlasmoDB); also called native enzyme; wild-type enzyme; source: E. coli (pQE30PfGMPS construct), purified (HisTrap HP, Superdex 200 SEC)
With B1, the “stoichiometry N” value worked out at 2.

B2: PfGMPS_C89A (enzyme)
chain: MEGEEYDKILVLNFGSQYFHLIVKRLNNIKIFSETKDYGVELKDIKDMNIKGVILSGGPYSVTEAGSPHLKKEVFEYFLEKKIPIFGIAYGMQEIAVQMNGEVKKSKTSEYGCTDVNILRNDNINNITYCRNFGDSSSAMDLYSNYKLMNETCCLFENIKSDITTVWMNHNDEVTKIPENFYLVSSSENCLICSIYNKEYNIYGVQYHPEVYESLDGELMFYNFAYNICKCKKQFDPIRYHELELKNIEKYKHDHYVIAAMSGGIDSTVAAAYTHKIFKERFFGIFIDNGLLRKNEAENVYTFLKSTFPDMNITKIDASENFLSNLQGVTDPEQKRKIIGKLFIEEFEKAVNNIDIDINKTFLLQGTLYPDIIESKCSKNLSDTIKTHHNVGGLPKNLKFKLFEPFKYLFKDDVKTLSRELNLPEEITNRHPFPGPGLAIRVIGEINKHKLNILREVDDIFINDLKQYGLYNQISQAFAVLLSSKSVGVRGDARSYDYVCVLRAVKTSSFMTANWYQIPYDILDKITTRILSEVKGVNRILYDVSSKPPATIEFE
notes: GMP synthetase of Plasmodium falciparum (PF10_0123) with the catalytic Cys89 of the GATase domain mutated to alanine; made with pETPfGMPS as template; this is a point mutant made on the plasmid pETPfGMPS; also called C89A single mutant; single mutant enzyme; source: E. coli BL21-CodonPlus(DE3)-RIL (pETPfGMPS mutant construct), purified (HisTrap HP, Superdex 200 SEC)
As for B2, the “stoichiometry N” value came to 2.

Usually stoichiometry N stands for the number of molecules, sites or subunits per partner or assembly.

The values are drawn from paper PMC9312489, “Tertiary and Quaternary Structure Organization in GMP Synthetases: Implications for Catalysis” (Biomolecules, 2022).
